Measured values taken from the supplement of paper PMC9732359.
± gives the uncertainty stated by the source.

Experiment: protein stability index of a GFP-peptide fusion (yeast GPS) (PSI 1-4); higher = more stable; sorted into four equal gates, so the index is relative within each strain
Settings: doa10∆
How it was run: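 The protein stability index combines read frequencies across sorting gates, each weighted by its gate number and then summed. To obtain those frequencies, a pooled yeast library of GFP fusions to tiled 17-residue yeast protein peptides, on a plasmid also expressing Cherry, was grown to mid-log phase in leucine-free medium. The cells were sorted into four equal gates by GFP/Cherry ratio before plasmid amplification by PCR and Illumina sequencing.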

Row | Sequence | protein stability index
1 | NLGYCNDKLIVDNDNWV [RPN1] | 2.37 ± 0.1
2 | NLHALSMSLQSKNLGEI [SWI1] | 2.57 ± 0.058
3 | NLIIFLYKFNGWSLVGR [YML103C/NUP188] | 1.59 ± 0.069
4 | NLKDLNNVKQMVMAGSK [RPO21] | 1.81 ± 0.12
5 | NLKEYNKFMSIFLKRKD [SRB8] | 1.64 ± 0.06
6 | NLLPKKSAKATKASQEL [HTA1] | 2.93 ± 0.1
7 | NLPKDKSGIPEFTPADP [SSN2] | 2.99 ± 0.091
8 | NLRTQVTQQKRSLDENR [SMC1] | 3.24 ± 0.12
9 | NLSQENDNEGKHISASI [YAR002W/NUP60] | 3.04 ± 0.075
10 | NLTIHFGGEKGKRIREN [FAS1] | 3.39 ± 0.1
11 | NLWKNIFLSKENSAVAA [COR1] | 1.85 ± 0.053
12 | NMEKEKDRIIDERTKEF [YIL149C/MLP2] | 3.11 ± 0.078
13 | NMLICAPTGSGKTNIAL [BRR2] | 2.55 ± 0.079
14 | NMYTSTQKTELEIDNKD [SIR4] | 3.04 ± 0.069
15 | NNAHSSDLGTVVFDSNE [YMR153W/NUP53] | 2.56 ± 0.16
16 | NNDVFTIGPYRARKDRM [SSN3] | 3.67 ± 0.27
17 | NNFIVERVQSDENKDDE [SRP68] | 3.52 ± 0.16
18 | NNGLPMKNKAETTTEED [ITC1] | 2.35 ± 0.29
19 | NNGSSDKSLDSSNASFN [MED1] | 2.92 ± 0.13
20 | NNIFKEFTSKIGFTIKE [SMC1] | 2.34 ± 0.054
21 | NNIIRIQQLISQFLKRV [SNF11] | 2.1 ± 0.039
22 | NNKITQLIAKNVANVSG [SIR3] | 1.7 ± 0.067
23 | NNNEDNENNNNSSEKNN [MED2] | 3.11 ± 0.052
24 | NNNGNPGTTSTGNNNNI [GAL11] | 3.18 ± 0.12
25 | NNNNTIDESMPDTAIDS [GRR1] | 2.78 ± 0.061
26 | NNNQKIDDNYIVVVIEI [SRB8] | 3.16 ± 0.078
27 | NNPANNTNNNNSTGHSS [SWI1] | 2.58 ± 0.036

Row | Sequence | protein stability index
28 | NNSTGIANDNVITPHFI [SWI1] | 2.69 ± 0.041
29 | NNTLSRYADAGNIDTKN [RRP43] | 3.35 ± 0.064
30 | NNTNTGASGVDDFQNFF [SWI1] | 2.92 ± 0.068
31 | NNVTSNPSEFTPNMVNS [SSN2] | 2.93 ± 0.063
32 | NNVYFAAGALFVSSGFD [RPN14] | 1.78 ± 0.13
33 | NPASATDNMSGRGLWNP [YJL039C/NUP192] | 2.71 ± 0.079
34 | NPDDDYGFKQEIFDVTS [FAS1] | 3.38 ± 0.25
35 | NPHDGVNSIALFVGTDR [RPN14] | 2.08 ± 0.14
36 | NPIDPFNIIREFRSAAG [YDL116W/NUP84] | 3.14 ± 0.074
37 | NPMVPSSVNEDTFLPPP [PRP8] | 3.05 ± 0.058
38 | NPSQGVSNSGAQDEEIH [UBP6] | 2.04 ± 0.074
39 | NPTEFDWPTYVDQNPLT [SRB8] | 2.85 ± 0.068
40 | NPVALEQKLVDLLKFEN [BRR2] | 2.94 ± 0.17
41 | NQKLALVIKSGKYTLGY [RPL30] | 2.46 ± 0.11
42 | NQLSQTNKLLFKRVSQT [NUT1] | 1.92 ± 0.042
43 | NQLVAKLLLLRINSTDE [SRB8] | 1.67 ± 0.11
44 | NQMKVAPIPKQLLQRIP [GAL11] | 2.28 ± 0.07
45 | NQTRKAHRNGIKKPKTY [RPL29] | 2.65 ± 0.083
46 | NQYKLVFYQVTPEDADE [RPL22B] | 2.21 ± 0.1
47 | NRHNLLNDVVSFLFSAI [SWI1] | 2.19 ± 0.077
48 | NRLSRIHLYMLTFHTLK [YLR018C/POM34] | 1.42 ± 0.068
49 | NRSVVYFKLDLTSDLVY [RRI2] | 1.37 ± 0.14
50 | NSAARNIQHLLYGKRFF [PRE7] | 2.13 ± 0.08
51 | NSANGSSLNGTNAKIPQ [SSN3] | 2.38 ± 0.071
52 | NSAVNNAISNTQDDFTT [SRP54] | 3.42 ± 0.1
53 | NSDHAKFTIEPGVLPVG [SNF2] | 2.23 ± 0.046
54 | NSKPVELKPVSLDNKTL [YJL041W/NSP1] | 2.8 ± 0.055

Row | Sequence | protein stability index
55 | NSLAVRGKDCTVVISQK [SCL1] | 2.64 ± 0.075
56 | NSNKQAVAILADDEKSD [BRR2] | 3.04 ± 0.091
57 | NSSEKNNNNNNNNNNNN [MED2] | 3.09 ± 0.058
58 | NSSEQESDYEPNNETSV [SIR3] | 3.11 ± 0.084
59 | NSTASSSNISPEQVYSL [ARP7] | 2.57 ± 0.05
60 | NTENVESVPTPANAEPQ [ITC1] | 3.11 ± 0.087
61 | NTEQGDSDELGGESMEG [SNM1] | 3.45 ± 0.1
62 | NTFTWNHSLQHQNESSA [RPN4] | 3.08 ± 0.056
63 | NTGGESVVKKEDNKYAI [RGR1] | 3.51 ± 0.1
64 | NTGIVSSTTGMSYVVRI [RPT3] | 3.17 ± 0.11
65 | NTLRMKHGTYDKLDDDG [RPB2] | 2.77 ± 0.077
66 | NTMSAWVNMLLISSSGP [FAS2] | 1.99 ± 0.07
67 | NTNNNNNPANNTNNNNS [SWI1] | 3.06 ± 0.033
68 | NTNNNNSTGHSSNTNNN [SWI1] | 2.63 ± 0.049
69 | NTSLISLFTYFREAIVA [PRP8] | 1.3 ± 0.049
70 | NTSSKRQKKKPTSAQKS [IRR1] | 2.71 ± 0.084
71 | NTTTRVIPQVEVGNRKH [SNF5] | 2.21 ± 0.2
72 | NVANVSGSTEKAFKICE [SIR3] | 2.96 ± 0.054
73 | NVAVDIINFGEIEQNTE [RPN10] | 3.23 ± 0.092
74 | NVDNQTSDLVKSLGLKL [RPS17A] | 3.2 ± 0.087
75 | NVFARLSRLLSLWEVFQ [RPC82] | 1.78 ± 0.16
76 | NVFGQDNEDSDNLFGET [SWI3] | 3.37 ± 0.13
77 | NVGELIEKNVMESIGSD [RRP4] | 2.54 ± 0.059
78 | NVIDTQRKNGVTNSPLF [ECM29] | 3 ± 0.25
79 | NVIRSLEQEYRLILLLN [RMP1] | 1.44 ± 0.036
80 | NVKFLRIFISNVSENQP [SNF12] | 1.53 ± 0.095
81 | NVKNDVSFNDSQSMVTN [YIL149C/MLP2] | 3.1 ± 0.054

Row | Sequence | protein stability index
82 | NVKYRAVVFKPFKGEVV [RPB7] | 2.96 ± 0.12
83 | NVLCVNIKSNDFSIRKT [ECM29] | 2.52 ± 0.068
84 | NVLNQINQIFSPEEQRS [GAL11] | 2.83 ± 0.045
85 | NVMTPREQYETQVALNE [UBP6] | 3.17 ± 0.087
86 | NVNNRFDNFLTEEELQA [BRN1] | 3.07 ± 0.078
87 | NVQTQYREAPVIYRGPE [RET1] | 2.53 ± 0.095
88 | NVSLIKIEGVATPQDAQ [RPL33A] | 2.74 ± 0.082
89 | NVTGGKAANFIQNQSPQ [SWI1] | 2.77 ± 0.062
90 | NVTKSSVGVIINKMVGN [RPL21A] | 2.17 ± 0.099
91 | NVTQNEQQWITRAQYLA [SRP68] | 1.42 ± 0.08
92 | NWRSFNAKIIDAEVAQF [SRP68] | 2.53 ± 0.071
93 | NYELEKIADNISKDENE [YDL116W/NUP84] | 3.03 ± 0.09
94 | NYTGWKAISVGANTSAA [PRE9] | 1.23 ± 0.079
95 | PAAESKIFTPNLLQISA [SNF5] | 1.72 ± 0.12
96 | PAEHPFISAARYKPKSH [RPC37] | 2.99 ± 0.1
97 | PANNHQLGLQTVIRGNS [SMX2] | 3.02 ± 0.077
98 | PASDDILDNINHNGSAL [ITC1] | 2.9 ± 0.1
99 | PDENHDNTSHDEQDDDN [BRN1] | 3.11 ± 0.1
100 | PDENKTRVRLPSGAKKV [RPL2A] | 3.12 ± 0.075
101 | PDGLGEVGMKVQSGQIY [RET1] | 3.27 ± 0.14
102 | PDIVGHEFTLSFTYELK [BRR2] | 2 ± 0.038
103 | PDLPALEASYSKSYTPR [SMC4] | 2.28 ± 0.064
104 | PELFESLGIAQPKGVIL [RPT6] | 2.56 ± 0.052
105 | PEQGEEPMKQLNATKIS [YAR002W/NUP60] | 3.15 ± 0.12
